# According to patent US20150150960A1, “PROTECTION AGAINST DENGUE VIRUS AND PREVENTION OF SEVERE DENGUE DISEASE” (priority 2010, published 2015):
# Legend:
# [1] = biological target: E451-459 / HLA A*0101 (DENV2 strain S221; human)
# [2] = biological target: NS11090-1099 / HLA A*0101 (DENV2 strain S221; human)
# [3] = biological target: NS2A1192-1200 / HLA A*0101 (DENV2 strain S221; human)
# [4] = biological target: NS2A1251-1259 / HLA A*0101 (DENV2 strain S221; human)
# [5] = biological target: NS4B2399-2407 / HLA A*0101 (DENV2 strain S221; human)
# [6] = biological target: NS53375-3383 / HLA A*0101 (DENV2 strain S221; human)
# [7] = biological target: E631-639 / HLA A*0201 (DENV2 strain S221; human)
# [8] = biological target: NS2B1383-1391 / HLA A*0201 (DENV2 strain S221; human)
# [9] = biological target: NS31465-1473 / HLA A*0201 (DENV2 strain S221; human)
# [10] = biological target: NS31681-1689 / HLA A*0201 (DENV2 strain S221; human)
# [11] = biological target: NS32013-2022 / HLA A*0201 (DENV2 strain S221; human)
# [12] = biological target: NS4A2140-2148 / HLA A*0201 (DENV2 strain S221; human)
# [13] = biological target: NS53058-3066 / HLA A*0201 (DENV2 strain S221; human)
# [14] = biological target: NS31509-1517 / HLA A*1101 (DENV2 strain S221; human)
# [15] = biological target: NS31608-1617 / HLA A*1101 (DENV2 strain S221; human)
# [16] = biological target: NS31863-1871 / HLA A*1101 (DENV2 strain S221; human)
# [17] = biological target: NS4A2074-2083 / HLA A*1101 (DENV2 strain S221; human)
# [18] = biological target: NS4B2315-2323 / HLA A*1101 (DENV2 strain S221; human)
# [19] = biological target: NS53079-3087 / HLA A*1101 (DENV2 strain S221; human)
# [20] = biological target: NS53283-3291 / HLA A*1101 (DENV2 strain S221; human)
# [21] = biological target: NS4B2280-2289 / HLA B*0702 (DENV2 strain S221; human)
# [22] = biological target: NS2A1212-1221 / HLA B*0702 (DENV2 strain S221; human)
# [23] = biological target: NS31682-1690 / HLA B*0702 (DENV2 strain S221; human)
# [24] = biological target: NS31700-1709 / HLA B*0702 (DENV2 strain S221; human)
# [25] = biological target: NS31753-1761 / HLA B*0702 (DENV2 strain S221; human)
# [26] = biological target: NS31808-1817 / HLA B*0702 (DENV2 strain S221; human)
# [27] = biological target: NS32070-2078 / HLA B*0702 (DENV2 strain S221; human)
# [28] = biological target: NS4B2280-2289 / HLA B*0702 (DENV2 strain S221; human); remark: listed apart in the source
# [29] = biological target: NS4B2296-2304 / HLA B*0702 (DENV2 strain S221; human)
# [30] = biological target: NS52646-2655 / HLA B*0702 (DENV2 strain S221; human)
# [31] = biological target: NS52885-2894 / HLA B*0702 (DENV2 strain S221; human)
# [32] = biological target: NS53077-3085 / HLA B*0702 (DENV2 strain S221; human)
substance,measurement,setting,value
splenic CD8+ T cells of DENV2 (S221)-infected HLA A*0101 transgenic IFN-α/βR-/- mice (cells without a defined receptor),T cell responses [SFC] mouse (IFNγ ELISPOT),[1],327 SFC
same,T cell responses [SFC] mouse (IFNγ ELISPOT),[2],228 SFC
same,T cell responses [SFC] mouse (IFNγ ELISPOT),[3],430 SFC
same,T cell responses [SFC] mouse (IFNγ ELISPOT),[4],465 SFC
same,T cell responses [SFC] mouse (IFNγ ELISPOT),[5],153 SFC
same,T cell responses [SFC] mouse (IFNγ ELISPOT),[6],495 SFC
splenic CD8+ T cells of DENV2 (S221)-infected HLA A*0201 transgenic IFN-α/βR-/- mice (cells without a defined receptor),T cell responses [SFC] mouse (IFNγ ELISPOT),[7],265 SFC
same,T cell responses [SFC] mouse (IFNγ ELISPOT),[8],519 SFC
same,T cell responses [SFC] mouse (IFNγ ELISPOT),[9],207 SFC
same,T cell responses [SFC] mouse (IFNγ ELISPOT),[10],299 SFC
same,T cell responses [SFC] mouse (IFNγ ELISPOT),[11],417 SFC
same,T cell responses [SFC] mouse (IFNγ ELISPOT),[12],384 SFC
same,T cell responses [SFC] mouse (IFNγ ELISPOT),[13],353 SFC
splenic CD8+ T cells of DENV2 (S221)-infected HLA A*1101 transgenic IFN-α/βR-/- mice (cells without a defined receptor),T cell responses [SFC] mouse (IFNγ ELISPOT),[14],436 SFC
same,T cell responses [SFC] mouse (IFNγ ELISPOT),[15],1000 SFC
same,T cell responses [SFC] mouse (IFNγ ELISPOT),[16],208 SFC
same,T cell responses [SFC] mouse (IFNγ ELISPOT),[17],148 SFC
same,T cell responses [SFC] mouse (IFNγ ELISPOT),[18],712 SFC
same,T cell responses [SFC] mouse (IFNγ ELISPOT),[19],105 SFC
same,T cell responses [SFC] mouse (IFNγ ELISPOT),[20],358 SFC
splenic CD8+ T cells of DENV2 (S221)-infected HLA B*0702 transgenic IFN-α/βR+/+ mice (cells without a defined receptor),IFNγ ELISPOT (SFC/10^6 CD8+ T cells),[21],50
splenic CD8+ T cells of DENV2 (S221)-infected HLA B*0702 transgenic IFN-α/βR-/- mice (cells without a defined receptor),T cell responses [SFC] mouse (IFNγ ELISPOT),[22],400 SFC
same,T cell responses [SFC] mouse (IFNγ ELISPOT),[23],1290 SFC
same,T cell responses [SFC] mouse (IFNγ ELISPOT),[24],1060 SFC
same,T cell responses [SFC] mouse (IFNγ ELISPOT),[25],509 SFC
same,T cell responses [SFC] mouse (IFNγ ELISPOT),[26],364 SFC
same,T cell responses [SFC] mouse (IFNγ ELISPOT),[27],1850 SFC
same,T cell responses [SFC] mouse (IFNγ ELISPOT),[28],1540 SFC
same,T cell responses [SFC] mouse (IFNγ ELISPOT),[29],1010 SFC
same,T cell responses [SFC] mouse (IFNγ ELISPOT),[30],994 SFC
same,T cell responses [SFC] mouse (IFNγ ELISPOT),[31],811 SFC
same,T cell responses [SFC] mouse (IFNγ ELISPOT),[32],487 SFC
